Experimental data as given in publication PMC4624963, “Enzymatic Characterization of Recombinant Food Vacuole Plasmepsin 4 from the Rodent Malaria Parasite Plasmodium berghei” (PLoS ONE, 2015).
Where no end group is shown, it is not given here.

Key:
[1] = target: mature plasmepsin 4 of Plasmodium berghei (PbPM4), auto-matured from semi-proPbPM4 (Plasmodium berghei ANKA); assay: enzyme inhibition kinetics (Ki of competitive inhibition); initial cleavage velocities of a chromogenic peptide substrate at varied inhibitor concentration, spectrophotometric; proPbPM4 pre-incubated in 100 mM sodium citrate pH 5.0, 37°C, 5 min; tight-binding or non-tight-binding competitive fit
[2] = target: plasmepsin 4 from Plasmodium malariae (Plasmodium malariae); assay: enzyme inhibition kinetics (Ki of competitive inhibition); initial cleavage velocities of a chromogenic peptide substrate at varied inhibitor concentration; plasmepsins pre-incubated in 100 mM sodium formate pH 4.5, 37°C, 5 min to convert zymogen to mature enzyme
[3] = target: plasmepsin 4 from Plasmodium ovalae (P. ovalae); assay: as above
[4] = target: plasmepsin 4 from Plasmodium vivax (Plasmodium vivax); assay: as above
[5] = target: human cathepsin D (human) (UniProt P07339); assay: enzyme inhibition kinetics (Ki of competitive inhibition); initial cleavage velocities of a chromogenic peptide substrate at varied inhibitor concentration; hcatD pre-incubated in 200 mM sodium formate pH 3.7, 37°C, 5 min

Ki [1] [nM]	Binder	further results
502	KPVEFRQT (not fully specified (residue 5); printed as KPVEFΨRQT; also: Ψ pseudopeptide bond between F5 and R6) [compound 4 (KPVEFΨRQT), peptidomimetic inhibitor designed for PfPM4]	
8100	KPFELAWT (not fully specified (residue 5); printed as KPFELΨAWT; also: Ψ pseudopeptide bond between L5 and A6) [compound 7 (KPFELΨAWT), peptidomimetic inhibitor designed for PmPM4]	
0.12	KPLEFYRV (not fully specified (residue 5); printed as KPLEFΨYRV; also: Ψ pseudopeptide bond between F5 and Y6) [compound 6 (KPLEFΨYRV), peptidomimetic inhibitor designed for PoPM4]	
1.4	KPLEFFRV (not fully specified (residue 5); printed as KPLEFΨFRV; also: Ψ pseudopeptide bond between F5 and F6) [compound 5 (KPLEFΨFRV), peptidomimetic inhibitor designed for PvPM4]	
3900	KPYEFRQF (not fully specified (residue 5); printed as KPYEFΨRQF; also: Ψ pseudo-peptide bond between F5 and R6) [compound 1 (KPYEFΨRQF), peptidomimetic inhibitor designed for PbPM4]	Ki [2]: 445 nM; Ki [3]: 1900 nM; Ki [4]: 426 nM; Ki [5]: 41000 nM
379	KPFSLLQF (not fully specified (residue 5); printed as KPFSLΨLQF; also: Ψ pseudopeptide bond between L5 and L6) [compound 2 (KPFSLΨLQF), peptidomimetic inhibitor designed for PfPM1]	
